Changes are numbered by the printed parent chain.
B1: ALT03M1: herbicide tolerant protein, SEQ ID NO: 39; ALT03 with glycine to alanine at position 140 (protein)
chain: METDNVELAQSKRKVVLAEQGSFYIGGRTVTGPGKFDPSKPVIPYSNEGATFYINQMYVNFQAPVRPRGLPLVFWHGGGLTGHIWESTPDGRPGFQTLFVQDRHTVYTIDQPGRGRGNIPTFNGPFGQLEEESIVNTVTANSSKEGAWVRDRLGPAPGQFFENSQFPRGYEDNYFKEMGFSPSISSDEIVDAVVKLVTHIGPCVLVTHSASGVLGMRVATHAKNVRGIVAYEPATSIFPKGKVPEIPPLADKKSQIFPPFEIQESYFKKLAKIPIQFVFGDNIPKNPKSAYWFLDWWRVTRYAHSLSLEAINKLGGQASLLDLPTAGLRGNTHFPFTDRNNVQVASLLSDFLGKHGLDQNES
modifications: the amino acid sequence of the ALT03M1
B2: ALT03M2: herbicide tolerant protein, SEQ ID NO: 43; ALT03 with serine to valine at position 142 (protein)
chain: B1 chain with A140G, S142V
modifications: the amino acid sequence of the ALT03M2
B3: ALT03M3: herbicide tolerant protein, SEQ ID NO: 47; ALT03 mutated at positions 44, 45, 140, 142 and 146 (protein)
chain: B1 chain with P44R, Y45A, S142V, G146R
modifications: The amino acid sequence of the ALT03M3
B4: ALT04M1: herbicide tolerant protein, SEQ ID NO: 55; ALT04 with glycine to alanine at position 131 (protein)
chain: MSKRKVVLAEQGSFYIGGRTVTGPGKFDPSKPVIPYSNEGATFYINQMYVNFQAPVRPRGLPLVFWHGGGLTGHIWESTPDGRPGFQTLFVQDRHTVYTIDQPGRGRGNIPTFNGPFGQLEEESIVNTVTANSSKEGAWVRDRLGPAPGQFFENSQFPRGYEDNYFKEMGFSPSISSDEIVDAVVKLVTHIGPCVLVTHSASGVLGMRVATHAKNVRGIVAYEPATSIFPKGKVPEIPPLADKKSQIFPPFEIQESYFKKLAKIPIQFVFGDNIPKNPKSAYWFLDWWRVTRYAHSLSLEAINKLGGQASLLDLPTAGLRGNTHFPFTDRNNVQVASLLSDFLGKHGLDQ
modifications: the amino acid sequence of the ALT04M1
B5: ALT04M2: herbicide tolerant protein, SEQ ID NO: 59; ALT04 with serine to valine at position 133 (protein)
chain: B4 chain with A131G, S133V
modifications: the amino acid sequence of the ALT04M2
B6: ALT03: ALT03 protein (362 amino acids), SEQ ID NO: 35; unmutated herbicide tolerant protein (protein)
chain: B1 chain with A140G
modifications: the amino acid sequence of ALT03
B7: ALT04M3: herbicide tolerant protein, SEQ ID NO: 63; ALT04 mutated at positions 35, 36, 131, 133 and 137 (protein)
chain: B4 chain with P35R, Y36A, S133V, G137R
modifications: the amino acid sequence of the ALT04M3
B8: ALT04: ALT04 protein (350 amino acids), SEQ ID NO: 51; unmutated herbicide tolerant protein (protein)
chain: B4 chain with A131G
modifications: the amino acid sequence of ALT04
B9: ALT02: ALT02 protein (369 amino acids), SEQ ID NO: 19; unmutated herbicide tolerant protein (protein)
chain: METDNVELAQSKRKVVLAEQGSFYIGGRTVTGPGKFDPSKPVIPYSNEGATFYINQMYVNFQAPVRPRGLPLVFWHGGGLTGHIWESTPDGRPGFQTLFVQDRHTVYTIDQPGRGRGNIPTFNGPFGQLEEESIVNTVTGNSSKEGAWVRDRLGPAPGQFFENSQFPRGYEDNYFKEMGFSPSISSDEIVDAVVKLVTHIGPCVLVTHSASGVLGMRVATHAKNVRGIVAYEPATSIFPKGKVPEIPPLADKKSQIFPPFEIQESYFKKLAKIPIQFVFGDNIPKNPKSAYWFLDWWRVTRYAHSLSLEAINKLGGQASLLDLPTAGLRGNTHFPFTDRNNVQVASLLSDFLGKHGLDQNESKLAAALE
modifications: the amino acid sequence of ALT02

Assay: not given
Assay type: biochemical
Settings: not given
Procedure: (§1) Each reaction was timed beginning with the addition of reactive enzyme, and was terminated with 1 mL of dichloromethane. The organic phase after delamination was dehydrated with anhydrous sodium sulfate.
(§2) The above dehydrated reaction solution was blown dry with nitrogen and filtered by adding 1 mL of methanol, and 20 μL of the filtrate was subjected to liquid chromatography-mass spectrometry (LC-MS). High performance liquid chromatography (HPLC) conditions were as follows: mobile phase being methanol:water (80:20, V/V), Zorbax XDB-C18 chromatographic column (3.5 μm, 2.1×50 mm, Agilent, USA), column temperature being room temperature, UV detector, with a detection wavelength of 255 nm, a sample injection volume of 20 μL, and a flow rate of 0.25 mL/min. The primary ion mass spectrometry conditions were as follows: ion detection mode being multi-reactive ion detection; ion polarity being negative ion; ionization mode being electrospray ionization; a capillary voltage of 4000 volts; a dry gas temperature of 330° C., a flow rate of 10 L/min, an atomizing gas pressure of 35 psi, a collision voltage of 135 volts; and a mass scan range of 300-500 m/z. The secondary ion mass spectrometry conditions were as follows: a collision voltage of 90 volts; a mass scanning range of 30-400 m/z, and other conditions being the same as those of the primary ion mass spectrometry. It was identified by LC-MS that the metabolite of thifensulfuron-methyl was thiophene sulfonic acid, and the metabolite of metsulfuron-methyl, chlorimuron-ethyl, bensulfuron-methyl, sulfometuron-methyl or tribenuron-methyl was its corresponding sulfonic acid. The amount of the generated thiophene sulfonic acid (metabolite) was detected using high performance liquid chromatography (HPLC).

Molecule	efficiency of degrading bensulfuron-methyl, fold of ALT03	efficiency of degrading thifensulfuron-methyl, fold of ALT03	efficiency of degrading chlorimuron-ethyl, fold of ALT03	efficiency of degrading chlorimuron-ethyl, fold of ALT04	efficiency of degrading metsulfuron-methyl, fold of ALT03	efficiency of degrading metsulfuron-methyl, fold of ALT04	efficiency of degrading bensulfuron-methyl, fold of ALT04	efficiency of degrading thifensulfuron-methyl, fold of ALT04
B1	2.1 fold	3.0 fold	–	–	–	–	–	–
B2	1.3 fold	3.5 fold	–	–	–	–	–	–
B3	–	–	13.0 fold	12.4 fold	1.9 fold	1.8 fold	–	–
B4	–	–	–	–	–	–	1.9 fold	2.8 fold
B5	–	–	–	–	–	–	1.2 fold	3.3 fold

Same assay, conditions: 0.2 μg enzyme, 0.2 mM substrate, pH 7.0, 30° C., 20 min

Molecule	specific enzyme activity, bensulfuron-methyl	specific enzyme activity, chlorimuron-ethyl	specific enzyme activity, metsulfuron-methyl	specific enzyme activity, thifensulfuron-methyl	specific enzyme activity, tribenuron-methyl
B1	3.7 µmol/min/mg	9.9 µmol/min/mg	2.1 µmol/min/mg	85.4 µmol/min/mg	2.9 µmol/min/mg
B2	2.3 µmol/min/mg	8.6 µmol/min/mg	1.1 µmol/min/mg	100.7 µmol/min/mg	10.3 µmol/min/mg
B6	1.6 µmol/min/mg	2.6 µmol/min/mg	1.9 µmol/min/mg	26.0 µmol/min/mg	1.7 µmol/min/mg
B3	0.6 µmol/min/mg	36.5 µmol/min/mg	4.0 µmol/min/mg	16.9 µmol/min/mg	3.1 µmol/min/mg
B4	3.5 µmol/min/mg	9.4 µmol/min/mg	2.0 µmol/min/mg	80.9 µmol/min/mg	2.8 µmol/min/mg
B7	0.6 µmol/min/mg	34.6 µmol/min/mg	3.8 µmol/min/mg	16.0 µmol/min/mg	3.0 µmol/min/mg
B8	1.5 µmol/min/mg	2.4 µmol/min/mg	1.8 µmol/min/mg	24.7 µmol/min/mg	1.6 µmol/min/mg
B5	2.2 µmol/min/mg	8.1 µmol/min/mg	1.1 µmol/min/mg	95.4 µmol/min/mg	9.7 µmol/min/mg
B9	1.8 µmol/min/mg	2.8 µmol/min/mg	2.1 µmol/min/mg	28.8 µmol/min/mg	1.9 µmol/min/mg

Assay: Degradation of sulfometuron-methyl by purified herbicide tolerant proteins (enzymatic activity, HPLC)
Assay type: biochemical
Settings: 0.2 μg enzyme, 0.2 mM substrate, pH 7.0, 30° C., 20 min
Procedure: as §1, §2

Molecule	specific enzyme activity, sulfometuron-methyl
B1	5.1 µmol/min/mg
B2	3.3 µmol/min/mg
B6	1.8 µmol/min/mg
B3	1.0 µmol/min/mg
B4	4.9 µmol/min/mg
B7	1.0 µmol/min/mg
B8	1.7 µmol/min/mg
B5	3.2 µmol/min/mg
B9	2.0 µmol/min/mg
